Test results taken from patent US20180135015A1.

Target: NKG2D ligands (NKG2DL) on target cells
Assay: cell-based or functional assay

target cell apoptosis (U-2 OS), apoptotic cells/0.07 mm^2 (apoptotic cells/0.07 mm^2): 11.7
Substance: NKG2D-DAP10-CD3zeta chimeric receptor complex (from UniProt Q9UBK5 19-93)
